Data: US12234475B2, “Compositions and methods for therapeutic delivery” (GenVivo, Inc., priority 2021, dated 2025)

Tested on: mouse splenocytes
Test: IFN-γ production by ELISA after stimulating mouse splenocytes with IL-12 containing conditioned media
Type: cell-based
Settings: summary, compared with commercial IL-12
Method: Functionality of mIL-12 was examined by incubating mouse splenocytes with mIL-12 and measuring INF-γ. About 2×10^6 mouse splenocytes were stimulated with either commercial recombinant mouse IL-12 (rIL-12) or the CM from mIL-12 retroviral vector transduced and stably expressing A375 cells for 48 hours. Following stimulation, the CM from each culture was collected and measured for IFN-γ production by ELISA (FIG. 5).
Next, CT26, murine colorectal carcinoma cell line was transduced with the mIL-12 retroviral vector and examined whether or not secreted mIL-12 can produce IFN-γ and activate inflammatory genes from immune cells. About 2×10^6 mouse splenocytes were stimulated with either commercial rIL-12 or the CM from mIL-12 expressing CT26 cells at the concentration of 2 ng/mL for 48 hours. Following stimulation, the supernatant and cells from each group were collected and analyzed for the production of IFN-γ via ELISA and the expression of inflammatory genes via qPCR. […] Some preliminary animal studies were performed by implanting 1.5×10^5 CT26 cells stably expressing luciferase gene or CT26 cells stably expressing luciferase and mIL-12 gene from the retroviral vector cells into the right shoulder flank. […] Bio-luminescence images of animals implanted with either CT26 expressing luciferase or luciferase and mIL-12 tumor cells are shown in FIG. 12. […]

B1: mIL-12: mouse IL-12 heterodimer of P40 and P35 secreted by cells transduced with the mIL-12 retroviral vector (protein, UniProt P43432 23-335; P43431 23-215, looked up)
Interleukin-12 subunit beta: MWELEKDVYVVEVDWTPDAPGETVNLTCDTPEEDDITWTSDQRHGVIGSGKTLTITVKEFLDAGQYTCHKGGETLSHSHLLLHKKENGIWSTEILKNFKNKTFLKCEAPNYSGRFTCSWLVQRNMDLKFNIKSSSSSPDSRAVTCGMASLSAEKVTLDQRDYEKYSVSCQEDVTCPTAEETLPIELALEARQQNKYENYSTSFFIRDIIKPDPPKNLQMKPLKNSQVEVSWEYPDSWSTPHSYFSLKFFVRIQRKKEKMKETEEGCNQKGAFLVEKTSTEVQCKGGNVCVQAQDRYYNSSCSKWACVPCRVRS
Interleukin-12 subunit alpha: RVIPVSGPARCLSQSRNLLKTTDDMVKTAREKLKHYSCTAEDIDHEDITRDQTSTLKTCLPLELHKNESCLATRETSSTTRGSCLPPQKTSLMMTLCLGSIYEDLKMYQTEFQAINAALQNHNHQQIILDKGMLVAIDELMQSLNHNGETLRQKPPVGEADPYRVKMKLCILLHAFSTRVVTINRVMGYLSSA
For B1, which “T-cell activation and IFN-γ production in vitro” value is on record?
The value was “as functionally effective as commercial IL-12”.
